In general, IC50 refers to the point on the concentration scale where inhibition reaches its midpoint. By Kd is commonly meant the free concentration of one partner at which half of the binding sites on the other are occupied at equilibrium, for simple one-to-one binding.

Positions count from the first letter of the chain named.

For assay [1], the target named is T1, recombinant human IL-23 (hrIL-23), produced at Centocor (human, UniProt P29460 23-328).
T1 construct: p19-p40 heterodimer; also called rhIL-23; huIL-23
T1 sequence 1: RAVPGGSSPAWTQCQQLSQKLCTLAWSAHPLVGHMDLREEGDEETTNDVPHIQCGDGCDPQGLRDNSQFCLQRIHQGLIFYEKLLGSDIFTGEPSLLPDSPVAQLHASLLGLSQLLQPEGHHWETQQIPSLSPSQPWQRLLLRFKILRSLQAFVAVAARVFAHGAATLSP
T1 sequence 2: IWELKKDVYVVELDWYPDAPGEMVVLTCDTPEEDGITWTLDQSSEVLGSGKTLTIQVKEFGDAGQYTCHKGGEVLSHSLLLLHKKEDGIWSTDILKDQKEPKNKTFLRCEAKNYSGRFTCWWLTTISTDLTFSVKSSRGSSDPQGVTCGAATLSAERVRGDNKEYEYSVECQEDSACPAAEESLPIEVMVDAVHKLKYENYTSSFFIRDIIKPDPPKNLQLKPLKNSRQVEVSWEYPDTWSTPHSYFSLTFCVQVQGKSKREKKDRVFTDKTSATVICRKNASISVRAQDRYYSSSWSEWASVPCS
The assay can be described thus: hrIL-23/hIL-23R competition assay.

In assay [2] the target is T1, recombinant human IL-23 (hrIL-23), …. The assay can be described thus: SET.
Assay [3] shares this target. The assay can be described thus: Biacore, Fab capture.
Assay [4] has the same target. The assay can be described thus: IL-23/IL-23R competition assay.
The target is the same in assay [5]. Nature of the assay: IL-23/IL-23R competition assay. The source holds these as a separate data set.
Assay [6] has the same target. The assay can be described thus: SET. This is another data set of the same source.
Assay [7] deals with T2, recombinant human IL-12 (hrIL-12), produced at Centocor (human, UniProt P29459 23-219; P29460 23-328).
T2 construct: also called IL-12 CNTO
T2 sequence (looked up) 1: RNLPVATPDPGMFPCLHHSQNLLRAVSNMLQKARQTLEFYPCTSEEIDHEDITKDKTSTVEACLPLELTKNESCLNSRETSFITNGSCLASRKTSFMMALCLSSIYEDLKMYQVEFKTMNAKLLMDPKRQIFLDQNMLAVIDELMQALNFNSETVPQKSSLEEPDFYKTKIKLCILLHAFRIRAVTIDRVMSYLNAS
T2 sequence (looked up) 2: T1 sequence 2
Nature of the assay: not told.

B1: MOR04083 Fab (Fab, V domains shown)
VH: QVQLVQSGAEVKKPGSSVKVSCKASGGTFSNYAISWVRQAPGQGLEWMGGIIPMFGYANYAQKFQGRVTITADESTSTAYMELSSLRSEDTAVYYCARDIYAGMDVWGQGTLVTVSS
VL: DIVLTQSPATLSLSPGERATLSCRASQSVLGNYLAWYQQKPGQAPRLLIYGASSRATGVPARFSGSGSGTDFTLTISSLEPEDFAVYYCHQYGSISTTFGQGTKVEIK
notes: Fab
For the molecule B1, the results for the 50% inhibitory concentration (IC50) in assay [1] and in assay [4] were 4.6 nM and 7.1 nM, respectively. The figures for the Kd in assay [2] and in assay [3] were 1.6 nM and 16 nM, respectively.

B2: MOR05053 Fab (Fab, V domains shown)
VH: QVQLVESGGGLVQPGGSLRLSCAASGFTFSSFGMSWVRQAPGKGLEWVSNIEHKYTSYTTYYAASVKGRFTISRDNSKNTLYLQMNSLRAEDTAVYYCARYWGTPYLMQFDNWGQGTLVTVSS
VL: DIALTQPASVSGSPGQSITISCTGTSSDVGGYNSVSWYQQHPGKAPKLMIYSVSSRPSGVSNRFSGSKSGNTASLTISGLQAEDEADYYCSSYDTNKPLVVFGGGTKLTVL
notes: Fab
For the molecule B2, in assay [5], the IC50 came to 0.98 nM. In addition, the Kd in assay [6] amounted to 0.027 nM.

B3: MOR04658 Fab (Fab, V domains shown)
VH: QVQLVESGGGLVQPGGSLRLSCAASGFTFSSFGMSWVRQAPGKGLEWVSNISSSGSSTYYADSVKGRFTISRDNSKNTLYLQMNSLRAEDTAVYYCARYWGTPYLMQFDNWGQGTLVTVSS
VL: B2 VL
notes: Fab
With B3, the results for the IC50 in assay [1] and in assay [5] were 0.7 nM and 14 nM, respectively. Besides, the Kd in assay [3] was 11 nM; in assay [6] it was 4.3 nM.

B4: MOR05061 Fab (Fab, V domains shown)
VH: B3 VH
VL: B2 VL with D94Y, T95F, N96Y, K97L, P98Q, L99R, V100I
notes: Fab
As to B4, the IC50 in assay [5] was determined as 1.25 nM. The Kd in assay [6] stood at 0.058 nM.

B5: MOR05050 Fab (Fab, V domains shown)
VH: B2 VH with N50S, S57G, S65P
VL: B2 VL
notes: Fab
With B5, the IC50 in assay [5] was determined as 0.89 nM. Besides, the Kd in assay [6] was determined as 0.023 nM.

B6: MOR05060 Fab (Fab, V domains shown)
VH: B3 VH
VL: B2 VL with S91G, T95V, N96Y, K97G, P98R, L99F, V100Y
notes: Fab
As to B6, the IC50 in assay [5] worked out at 1 nM. Also, in assay [6], the Kd was 0.142 nM.

B7: MOR05063 Fab (Fab, V domains shown)
VH: B3 VH
VL: B2 VL with S91G, Y93W, T95P, N96I, K97F, P98S, L99Y, V100E
notes: Fab
Take B7: in assay [5], the concentration for half-maximal inhibition (IC50) came out at 0.32 nM. Further, the dissociation constant Kd in assay [6] was 0.069 nM.

B8: MOR05039 Fab (Fab, V domains shown)
VH: B2 VH with T56L, S57N, T59A
VL: B2 VL
notes: Fab
Regarding B8, in assay [5], the IC50 came to 0.1 nM. Moreover, in assay [6], the Kd is 0.027 nM.

B9: MOR05048 Fab (Fab, V domains shown)
VH: B2 VH with Y55F, T56M, S57G, S65G
VL: B2 VL
notes: Fab
For B9, in assay [5], the IC50 came to 0.1 nM. The Kd in assay [6] is 0.02 nM.

B10: MOR05055 Fab (Fab, V domains shown)
VH: B2 VH with T56L, S57G, T59A, Y61V
VL: B2 VL
notes: Fab
For the molecule B10, the 50% inhibitory concentration (IC50) in assay [5] came out at 0.79 nM. For the same molecule, the Kd in assay [6] came out at 0.029 nM.

B11: MOR05052 Fab (Fab, V domains shown)
VH: B2 VH with N50S, T56L, Y61F
VL: B2 VL
notes: Fab
B11: in assay [5], the IC50 was 0.58 nM. Also, the Kd in assay [6] came out at 0.01 nM.

B12: MOR05047 Fab (Fab, V domains shown)
VH: B2 VH with T56L, S57G, T59A, Y61S
VL: B2 VL
notes: Fab
Consider B12, for which, in assay [5], the IC50 is 0.13 nM. The Kd in assay [6] is 0.036 nM.

B13: MOR05062 Fab (Fab, V domains shown)
VH: B3 VH
VL: B2 VL with S91Q, S92T, D94Y, T95F, N96S, K97Y, P98S, L99G, V100P
notes: Fab
For B13, the IC50 in assay [5] was 1.34 nM. The Kd in assay [6] worked out at 0.098 nM.

B14: MOR05056 Fab (Fab, V domains shown)
VH: B2 VH with N50S, T56L, T59A, S65G
VL: B2 VL
notes: Fab
As for B14, the half-inhibitory concentration (IC50) in assay [5] was 0.52 nM. Further, the Kd in assay [6] was determined as 0.065 nM.

B15: MOR04190 Fab (Fab, V domains shown)
VH: QVQLVQSGAEVKKPGSSVKVSCKASGGTFSSNYISWVRQAPGQGLEWMGGIIPIFGHANYAQKFQGRVTITADESTSTAYMELSSLRSEDTAVYYCARSKKGMYGGWTYPLMMFDLWGQGTLVTVSS
VL: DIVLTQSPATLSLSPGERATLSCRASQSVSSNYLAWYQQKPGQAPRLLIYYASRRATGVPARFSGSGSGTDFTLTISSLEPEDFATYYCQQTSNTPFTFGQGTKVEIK
notes: Fab
With B15, the half-inhibitory concentration (IC50) in assay [1] turned out to be 4.8 nM; in assay [4], 1.3 nM. The Kd in assay [2] turned out to be 4.4 nM; in assay [3], 11 nM.

B16: MOR04217 Fab (Fab, V domains shown)
VH: QVQLVESGGGLVQPGGSLRLSCAASGFTFSSYWITWVRQAPGKGLEWVSYISSSGSSTYYADSVKGRFTISRDNSKNTLYLQMNSLRAEDTAVYYCARGTFWSFGNYFANWGQGTLVTVSS
VL: DIVLTQSPATLSLSPGERATLSCRASQSIFYNLAWYQQKPGQAPRLLIYGASNRATGVPARFSGSGSGTDFTLTISSLEPEDFATYYCQQYSSEPVTFGQGTKVEIK
notes: Fab
For B16, the concentration for half-maximal inhibition (IC50) in assay [1] was 16 nM. Besides, in assay [3], the equilibrium dissociation constant (Kd) came to 41 nM.

B17: MOR04205 Fab (Fab, V domains shown)
VH: QVQLVQSGAEVKKPGESLKISCKGSGYSFTNYWISWVRQAPGKGLEWMGWIRPGDSDTRYSPSFEGQVTISADKSISTAYLQWSSLKASDTAMYYCARHYYGMDYWGQGTLVTVSS
VL: DIVLTQPPSVSGAPGQRVTISCSGSSSNIGSYYVNWYQQLPGTAPKLLIYGNTHRPSGVPDRFSGSKSGTSASLAITGLQSEDEADYYCQTYASLGPGEVFGGGTKLTVL
notes: Fab
On to B17, for which the half-maximal inhibitory concentration (IC50) in assay [1] was 38 nM. The Kd in assay [3] came to 140 nM.

B18: MOR05042 Fab (Fab, V domains shown)
VH: QVQLVQSGAEVKKPGESLKISCKGSGYSFSNYWIGWVRQMPGKGLEWMGIISPTGSSTWYSPSFQGQVTISADKSISTAYLQWSSLKASDTAMYYCARWYYKPFDVWGQGTLVTVSS
VL: DIVLTQPPSVSGAPGQRVTISCTGSSSNIGSGYDVHWYQQLPGTAPKLLIYGNSKRPSGVPDRFSGSKSGTSASLAITGLQSEDEADYYCSSWTPSSVVFGGGTKLTVL
notes: Fab
B18: in assay [7], the binding result was “no binding”. For the same molecule, the equilibrium dissociation constant (Kd) in assay [2] was found to be 0.004 nM. Besides, in assay [4], the IC50 was 0.06 nM.

B19: MOR05059 Fab (Fab, V domains shown)
VH: B18 VH with S52D, T54S, G55N, S57Y, W59N
VL: DIVLTQPPSVSGAPGQRVTISCTGSSSNIGSGYDVHWYQQLPGTAPKLLIYGNSKRPSGVPDRFSGSKSGTSASLAITGLQSEDEADYYCASWTDGLSLVVFGGGTKLTVL
notes: Fab
In the case of B19, the Kd in assay [2] was found to be 0.093 nM. In assay [4], the IC50 worked out at 0.69 nM.

B20: MOR05045 Fab (Fab, V domains shown)
VH: B18 VH with S57A
VL: B18 VL
notes: Fab
B20: the binding result in assay [7] was “no binding”. The Kd in assay [2] is 0.009 nM. In assay [4], the IC50 came to 0.05 nM.

B21: MOR05058 Fab (Fab, V domains shown)
VH: B18 VH with S52D, T54S, G55N, S57Y, W59N
VL: B19 VL with A91S, G96T, L97P, S98N, L99M, V100I
notes: Fab
Turning to B21, the Kd in assay [2] came out at 0.033 nM. Further, the IC50 in assay [4] is 0.11 nM.

B22: MOR04649 Fab (Fab, V domains shown)
VH: B18 VH with S52D, T54S, G55N, S57Y, W59N
VL: B18 VL
notes: Fab
Take B22: the IC50 in assay [1] was 0.2 nM; in assay [4] it was 1.2 nM. Besides, the Kd in assay [2] is 1.1 nM; in assay [3], 7 nM.

The values above are taken from patent publication US20180291096A1 (Janssen / Centocor, published 2018).
